The values below come from US9845340B2, “Peptides that specifically bind HGF receptor (cMet) and uses thereof” (Dyax Corp., priority 2003, dated 2017).

One assay addresses cMet-Fc fusion protein (Homo sapiens, UniProt P08581). In words: Protein phage ELISA: peptide-displaying phage binding to soluble cMet-Fc versus TRAIL-Fc. Conditions: phage isolate; cMet-Fc vs. TRAIL-Fc. Put shortly: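 Phage displaying selected peptides were incubated 2 h at room temperature on wells coated with 0.5 μg/mL cMet-Fc, with TRAIL-Fc coating as the unrelated-Fc specificity control.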
In general terms: An ELISA detects its analyte on a solid surface through an enzyme-linked reagent.

In assay [1] the target is T1, 3T3 cells that over-express human cMet (Homo sapiens, UniProt P08581).
T1 construct: expressed in transfected cells; host or cells: 3T3 cells
T1 sequence (P08581 25-1390): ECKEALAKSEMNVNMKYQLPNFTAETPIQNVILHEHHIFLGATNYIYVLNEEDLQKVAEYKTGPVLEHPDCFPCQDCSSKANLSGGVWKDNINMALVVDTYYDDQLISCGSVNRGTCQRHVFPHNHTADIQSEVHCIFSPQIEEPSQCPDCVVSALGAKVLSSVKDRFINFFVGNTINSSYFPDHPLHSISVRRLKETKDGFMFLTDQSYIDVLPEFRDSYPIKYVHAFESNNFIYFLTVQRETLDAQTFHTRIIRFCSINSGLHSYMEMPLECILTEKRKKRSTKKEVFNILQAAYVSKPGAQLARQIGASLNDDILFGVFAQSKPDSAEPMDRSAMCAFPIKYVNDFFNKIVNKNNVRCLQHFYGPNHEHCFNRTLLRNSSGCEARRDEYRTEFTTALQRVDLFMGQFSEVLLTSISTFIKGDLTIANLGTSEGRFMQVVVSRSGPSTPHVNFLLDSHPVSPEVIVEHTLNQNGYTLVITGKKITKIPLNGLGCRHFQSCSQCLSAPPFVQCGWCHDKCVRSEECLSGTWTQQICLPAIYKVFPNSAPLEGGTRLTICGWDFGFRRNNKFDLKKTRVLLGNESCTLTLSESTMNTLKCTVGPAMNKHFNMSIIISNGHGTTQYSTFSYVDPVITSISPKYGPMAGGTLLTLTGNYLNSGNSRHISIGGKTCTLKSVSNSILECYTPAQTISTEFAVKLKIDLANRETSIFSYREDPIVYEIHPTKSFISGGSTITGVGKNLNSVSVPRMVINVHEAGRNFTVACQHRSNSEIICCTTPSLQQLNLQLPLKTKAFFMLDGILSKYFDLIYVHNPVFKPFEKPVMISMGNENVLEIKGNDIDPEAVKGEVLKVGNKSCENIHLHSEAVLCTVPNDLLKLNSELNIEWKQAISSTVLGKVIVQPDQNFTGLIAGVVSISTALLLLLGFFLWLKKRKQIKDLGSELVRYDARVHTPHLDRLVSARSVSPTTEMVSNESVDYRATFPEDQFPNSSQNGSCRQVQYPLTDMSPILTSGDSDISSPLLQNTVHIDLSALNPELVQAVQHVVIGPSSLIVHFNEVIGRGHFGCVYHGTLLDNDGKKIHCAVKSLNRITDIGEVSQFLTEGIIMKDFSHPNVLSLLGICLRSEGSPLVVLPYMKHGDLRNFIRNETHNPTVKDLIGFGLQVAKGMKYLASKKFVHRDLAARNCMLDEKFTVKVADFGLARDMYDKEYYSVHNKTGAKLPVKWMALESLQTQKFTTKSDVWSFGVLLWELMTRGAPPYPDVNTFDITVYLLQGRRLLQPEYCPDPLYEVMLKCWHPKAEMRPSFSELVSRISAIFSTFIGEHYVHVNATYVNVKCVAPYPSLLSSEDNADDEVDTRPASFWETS
In words: Whole cell ELISA of peptide-displaying phage. It counts as cell-based. As to conditions: phage isolate; 3T3 cells expressing human cMet vs. non-expressing 3T3 cells. The essentials: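 Phage displaying peptides, pre-blocked 1 h at 37 °C, incubated 1 h at RT on glutaraldehyde-fixed (0.1%, 12 min, 37 °C) cMet-overexpressing 3T3 cells (10^5 per well). Binding read out by HRP anti-M13 antibody after PBST washing.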

cMet-Fc fusion protein, sequence (P08581 25-307 limits assumed): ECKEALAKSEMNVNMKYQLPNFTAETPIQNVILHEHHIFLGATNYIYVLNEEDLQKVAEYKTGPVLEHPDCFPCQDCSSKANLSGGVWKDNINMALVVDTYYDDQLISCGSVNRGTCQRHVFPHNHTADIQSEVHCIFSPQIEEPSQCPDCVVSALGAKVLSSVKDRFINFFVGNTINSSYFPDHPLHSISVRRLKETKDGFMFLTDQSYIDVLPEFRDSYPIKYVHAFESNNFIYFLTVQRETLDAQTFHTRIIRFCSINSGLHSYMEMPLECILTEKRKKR
cMet-Fc fusion protein, sequence (P08581 with tags, fused parts or gaps limits assumed): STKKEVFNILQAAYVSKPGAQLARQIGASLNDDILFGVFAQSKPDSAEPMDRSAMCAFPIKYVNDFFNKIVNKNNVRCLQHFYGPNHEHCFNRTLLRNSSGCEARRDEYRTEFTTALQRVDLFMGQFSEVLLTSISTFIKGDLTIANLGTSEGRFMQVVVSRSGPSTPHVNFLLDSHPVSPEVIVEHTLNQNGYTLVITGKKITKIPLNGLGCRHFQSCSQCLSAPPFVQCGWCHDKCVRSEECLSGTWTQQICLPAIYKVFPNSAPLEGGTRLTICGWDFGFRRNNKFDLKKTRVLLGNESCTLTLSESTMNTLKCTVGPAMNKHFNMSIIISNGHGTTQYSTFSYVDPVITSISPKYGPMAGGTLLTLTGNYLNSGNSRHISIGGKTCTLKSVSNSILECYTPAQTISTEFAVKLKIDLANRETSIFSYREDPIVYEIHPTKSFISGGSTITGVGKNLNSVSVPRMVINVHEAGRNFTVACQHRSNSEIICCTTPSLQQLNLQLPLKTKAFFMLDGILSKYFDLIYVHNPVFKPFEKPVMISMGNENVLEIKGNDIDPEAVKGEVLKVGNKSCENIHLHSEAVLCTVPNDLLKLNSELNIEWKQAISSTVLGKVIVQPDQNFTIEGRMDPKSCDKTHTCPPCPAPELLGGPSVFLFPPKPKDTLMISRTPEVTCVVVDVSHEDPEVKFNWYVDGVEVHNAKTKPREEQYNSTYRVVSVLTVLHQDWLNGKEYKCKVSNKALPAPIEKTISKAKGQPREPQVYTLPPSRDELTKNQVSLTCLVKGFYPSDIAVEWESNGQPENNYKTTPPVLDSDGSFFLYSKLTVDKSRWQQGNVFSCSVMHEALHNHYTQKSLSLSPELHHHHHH

For the molecule `CC[C@H](C)[C@H](NC(=O)[C@H](Cc1c[nH]cn1)NC(=O)[C@H](CC(C)C)NC(=O)[C@@H](NC(=O)[C@H](CCSC)NC(=O)[C@H](CCSC)NC(=O)[C@H](CCC(N)=O)NC(=O)CNC(=O)[C@H](Cc1ccc(O)cc1)NC(=O)[C@H](CCC(N)=O)NC(=O)[C@H](Cc1c[nH]cn1)NC(=O)[C@H](CCC(N)=O)NC(=O)[C@H](C)NC(C)=O)C(C)C)C(=O)N[C@@H](CCC(N)=O)C(=O)N[C@@H](Cc1ccc(O)cc1)C(=O)N[C@@H](CC(=O)O)C(=O)N[C@@H](CCSC)C(=O)NCC(=O)N[C@@H](CCC(=O)O)C(=O)N[C@@H](Cc1ccccc1)C(=O)N[C@H](C(=O)N1CCC[C@H]1C(=O)NCC(=O)NCC(=O)NCC(=O)N[C@@H](CCCCNC(=O)c1ccc2c(c1)C(=O)OC21c2ccc(O)cc2Oc2cc(O)ccc21)C(N)=O)[C@@H](C)CC` [SEQ ID NO: 462], the “Protein ELISA” value on cMet-Fc fusion protein is 4.5 fold over background. In addition, the “WC ELISA” value in assay [1] came out at 1.27 fold over background.
For “GSFTACNKTSTTRQPCNPYAP (Synthetically generated cMet-binding peptide sequence) [SEQ ID NO: 384]”, in that order: 3.1 fold over background and 1.37 fold over background.
For `CC(=O)N[C@@H](C)C(=O)N[C@@H](CCC(N)=O)C(=O)N[C@@H](CC(=O)O)C(=O)N[C@@H](CC(C)C)C(=O)N[C@@H](CCCCN)C(=O)N1CCC[C@H]1C(=O)N[C@@H](Cc1c[nH]c2ccccc12)C(=O)N[C@H](C(=O)N[C@@H](C)C(=O)NCC(=O)N[C@@H](Cc1c[nH]c2ccccc12)C(=O)N[C@@H](CCC(=O)O)C(=O)N1CCC[C@H]1C(=O)N1CCC[C@H]1C(=O)N[C@@H](Cc1c[nH]c2ccccc12)C(=O)N[C@@H](CC(C)C)C(=O)N[C@@H](Cc1c[nH]c2ccccc12)C(=O)N[C@H](C(=O)N[C@@H](CC(=O)O)C(=O)N[C@@H](CCCNC(=N)N)C(=O)NCC(=O)N1CCC[C@H]1C(=O)NCC(=O)NCC(=O)NCC(=O)N[C@@H](CCCCNC(=O)c1ccc2c(c1)C(=O)OC21c2ccc(O)cc2Oc2cc(O)ccc21)C(N)=O)[C@@H](C)O)[C@@H](C)O` [SEQ ID NO: 461], in that order: 5.0 fold over background and 1.30 fold over background.
For the molecule “AGTWHCAGPPWFTCYMDGT (Synthetically generated cMet-binding peptide sequence) [SEQ ID NO: 069]”, in the assay with cMet-Fc fusion protein, the “Protein ELISA” value was determined as 9.0 fold over background. In addition, the “WC ELISA” value in assay [1] worked out at 1.30 fold over background.
For `CC[C@H](C)[C@H](NC(=O)[C@H](CO)NC(=O)CNC(=O)[C@H](C)NC(C)=O)C(=O)N[C@@H](CCC(N)=O)C(=O)N[C@H]1CSSC[C@@H](C(=O)N[C@@H](C)C(=O)N[C@@H](CCSC)C(=O)N[C@@H](Cc2ccc(O)cc2)C(=O)NCC(=O)N[C@H](C(=O)NCC(=O)NCC(=O)NCC(=O)N[C@@H](CCCCNC(=O)c2ccc3c(c2)C(=O)OC32c3ccc(O)cc3Oc3cc(O)ccc32)C(N)=O)[C@@H](C)O)NC(=O)[C@H](CO)NC(=O)[C@H](Cc2ccccc2)NC(=O)[C@H](Cc2c[nH]c3ccccc23)NC(=O)[C@@H]2CCCN2C(=O)[C@@H]2CCCN2C(=O)CNC(=O)[C@H](CCCCN)NC1=O` [SEQ ID NO: 048], in that order: 15.9 fold over background and 1.47 fold over background.
For `CC[C@H](C)[C@@H]1NC(=O)[C@H](Cc2ccccc2)NC(=O)[C@H](CCC(=O)O)NC(=O)[C@@H](NC(=O)[C@H](Cc2c[nH]cn2)NC(=O)[C@H](Cc2ccccc2)NC(=O)[C@H](CC(=O)O)NC(=O)[C@H](CC(=O)O)NC(=O)CNC(C)=O)CSSC[C@@H](C(=O)N[C@@H](Cc2ccc(O)cc2)C(=O)N[C@@H](Cc2ccccc2)C(=O)N[C@@H](CC(N)=O)C(=O)N[C@@H](CC(=O)O)C(=O)N2CCC[C@H]2C(=O)NCC(=O)NCC(=O)NCC(=O)N[C@@H](CCCCNC(=O)c2ccc3c(c2)C(=O)OC32c3ccc(O)cc3Oc3cc(O)ccc32)C(N)=O)NC(=O)[C@H]([C@@H](C)CC)NC(=O)[C@H](CCC(=O)O)NC(=O)[C@H](CO)NC(=O)[C@H](CCC(N)=O)NC(=O)[C@H](Cc2ccc(O)cc2)NC(=O)[C@H](CC(=O)O)NC(=O)[C@H](CC(=O)O)NC1=O` [SEQ ID NO: 391] the same measures were 12.4 fold over background and 1.37 fold over background.
For “AGDWHCQGPPAFMCWMIGT (Synthetically generated cMet-binding peptide sequence) [SEQ ID NO: 065]”, in that order: 4.7 fold over background and 1.30 fold over background.
Turning to “AQFMYEKEHYVMSISLPGLWFY (Synthetically generated cMet-binding peptide sequence) [SEQ ID NO: 486]”, the “Protein ELISA” value with cMet-Fc fusion protein is on record as 3.0 fold over background. The “WC ELISA” value in assay [1] is on record as 1.63 fold over background.
“AGIWFCNNEEKSCWAYGT (Synthetically generated cMet-binding peptide sequence) [SEQ ID NO: 040]”: the “Protein ELISA” value in the assay with cMet-Fc fusion protein stood at 3.0 fold over background. Besides, the “WC ELISA” value in assay [1] is 1.37 fold over background.
For “AGPWKCTGPPTFSCIQFGT (Synthetically generated cMet-binding peptide sequence) [SEQ ID NO: 090]” the same measures were 19.5 fold over background and 1.23 fold over background.
For “GSSHLCNPEFCHFTAP (Synthetically generated cMet-binding peptide sequence) [SEQ ID NO: 003]” the same measures were 3.2 fold over background and 1.30 fold over background.
For “AGPYSCHSESHDCKLMGT (Synthetically generated cMet-binding peptide sequence) [SEQ ID NO: 032]” the same measures were 3.2 fold over background and 1.27 fold over background.
On to “AQAEWVITSEEFYWKMADFGPP (Synthetically generated cMet-binding peptide sequence) [SEQ ID NO: 478]”, for which, in the assay with cMet-Fc fusion protein, the “Protein ELISA” value came to 3.4 fold over background. In addition, in assay [1], the “WC ELISA” value came out at 1.23 fold over background.
For “AGGFACGPPWDICWMFGT (Synthetically generated cMet-binding peptide sequence) [SEQ ID NO: 011]”, in that order: 5.6 fold over background and 1.30 fold over background.
For “AGETKCSGPPYFYCWMEGT (Synthetically generated cMet-binding peptide sequence) [SEQ ID NO: 093]” the same measures were 16.3 fold over background and 1.23 fold over background.
“AGSYWCSGPPTFMCRYEGT (Synthetically generated cMet-binding peptide sequence) [SEQ ID NO: 085]”: the “Protein ELISA” value in the assay with cMet-Fc fusion protein was determined as 17.1 fold over background. Moreover, the “WC ELISA” value in assay [1] stood at 1.27 fold over background.
For “GSGMGCHQVNISTGDCAEDAP (Synthetically generated cMet-binding peptide sequence) [SEQ ID NO: 381]”, in that order: 3.9 fold over background and 1.43 fold over background.
For “GSHHTCLDGFAGWRCTEVAP (Synthetically generated cMet-binding peptide sequence) [SEQ ID NO: 366]”, in that order: 10.4 fold over background and 1.33 fold over background.
For “AGETFCSGWPTFECMQWGT (Synthetically generated cMet-binding peptide sequence) [SEQ ID NO: 095]”, in that order: 16.2 fold over background and 1.23 fold over background.
Turning to “AGYYHCIDDFPQCKWMGT (Synthetically generated cMet-binding peptide sequence) [SEQ ID NO: 017]”, the “Protein ELISA” value with cMet-Fc fusion protein amounted to 3.9 fold over background. Besides, the “WC ELISA” value in assay [1] worked out at 1.37 fold over background.
For “GDPWWCFEKDSFIPFACWHHDP (Synthetically generated cMet-binding peptide sequence) [SEQ ID NO: 396]”, in that order: 7.4 fold over background and 1.30 fold over background.
For `CC[C@H](C)[C@H](NC(=O)[C@H](CCC(N)=O)NC(=O)[C@H](CCCNC(=N)N)NC(=O)CNC(=O)[C@H](CO)NC(=O)[C@H](CC(=O)O)NC(=O)[C@H](CC(=O)O)NC(=O)[C@@H](NC(=O)[C@@H]1CCCN1C(=O)[C@H](Cc1ccccc1)NC(=O)[C@@H](NC(=O)[C@H](Cc1ccc(O)cc1)NC(=O)[C@@H]1CCCN1C(=O)[C@H](CO)NC(=O)[C@H](CCC(N)=O)NC(=O)[C@H](C)NC(C)=O)[C@@H](C)CC)[C@@H](C)CC)C(=O)N[C@@H](Cc1ccccc1)C(=O)N[C@H](C(=O)N[C@H](C(=O)N[C@@H](CCC(N)=O)C(=O)N[C@@H](Cc1c[nH]c2ccccc12)C(=O)NCC(=O)NCC(=O)NCC(=O)NCC(=O)N[C@@H](CCCCNC(=O)c1ccc2c(c1)C(=O)OC21c2ccc(O)cc2Oc2cc(O)ccc21)C(N)=O)[C@@H](C)CC)C(C)C` [SEQ ID NO: 463] the same measures were 4.4 fold over background and 1.23 fold over background.
